Results as given in paper PMC9135769, “A topological refactoring design strategy yields highly stable granulopoietic proteins” (Nature Communications, 2022).

T1: G-CSF Receptor (G-CSFR) (human, UniProt Q99062 25-333)
T1 construct: G-CSF receptor (G-CSFR), human, bought recombinant protein; In the functional rows the receptor is the one on the cells of the test (murine NFS-60 or human CD34+ HSPCs); also called human G-CSFR; human G-CSF receptor; source: bought: R&D systems 381-GR-050/CF
T1 sequence: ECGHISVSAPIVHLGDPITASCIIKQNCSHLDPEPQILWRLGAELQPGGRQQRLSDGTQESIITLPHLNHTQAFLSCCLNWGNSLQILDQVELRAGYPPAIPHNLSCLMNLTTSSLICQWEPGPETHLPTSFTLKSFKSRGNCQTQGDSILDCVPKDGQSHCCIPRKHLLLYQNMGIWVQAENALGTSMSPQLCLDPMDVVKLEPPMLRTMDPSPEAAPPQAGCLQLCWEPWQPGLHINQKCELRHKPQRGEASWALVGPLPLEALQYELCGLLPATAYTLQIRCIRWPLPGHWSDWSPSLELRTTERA


Experiments:
[1] = molecular target: G-CSFR (Homo sapiens) (UniProt Q99062); experiment: SPR; settings: cited from earlier work
[2] = molecular target: G-CSFR (Homo sapiens) (UniProt Q99062); experiment: ITC; settings: cited from earlier work
[3] = molecular target: T1, G-CSF Receptor (G-CSFR); experiment: SPR; G-CSFR amine-coupled on a CM5 chip (Biacore X100), analytes flowed over, multi-cycle kinetics, 25 °C, 10 mM HEPES pH 7.4, 150 mM NaCl, 3.4 mM EDTA, 0.005% Tween-20; 1:1 model, linear fit of kobs against concentration; legend speaks of apparent affinity for the bivalent ligands; settings: both partners purified

Sequence of G-CSF (P09919 31-207): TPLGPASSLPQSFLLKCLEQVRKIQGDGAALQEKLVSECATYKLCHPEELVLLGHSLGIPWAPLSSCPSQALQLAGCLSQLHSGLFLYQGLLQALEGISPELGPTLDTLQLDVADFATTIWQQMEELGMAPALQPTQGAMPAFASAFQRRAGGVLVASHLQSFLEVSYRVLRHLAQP

Row | Molecule | Kd [1] [nM] | Kd [2] [nM] | Kd [3] [nM] | koff [3] [s⁻¹] | kon [3] [M⁻¹ s⁻¹]
1 | G-CSF (from UniProt P09919) | 0.2 | 1.4 |  |  | 
2 | Recombinant human G-CSF (rhG-CSF), USP RS Filgrastim (ligand, UniProt P09919-2 31-204, looked up, granulocyte-colony stimulating factor (G-CSF), human, recombinant; printed length 174 amino acids; also called granulocyte-colony stimulating factor; wild-type G-CSF; source: bought: USP RS Filgrastim, Sigma-Aldrich 1270435) TPLGPASSLPQSFLLKCLEQVRKIQGDGAALQEKLCATYKLCHPEELVLLGHSLGIPWAPLSSCPSQALQLAGCLSQLHSGLFLYQGLLQALEGISPELGPTLDTLQLDVADFATTIWQQMEELGMAPALQPTQGAMPAFASAFQRRAGGVLVASHLQSFLEVSYRVLRHLAQP |  |  | 1.1 | 0.00049 | 300000
